The assay addresses HV62, synthetic peptide corresponding to residues 33 to 94 of human VAMP-2 (human) (UniProt P63027).

The text below walks through data of patent US20080032931A1.

Regarding “enterokinase-nicked recombinant single-chain TeNT, wild type L chain (enzyme)”, the Initial rate of cleavage of HV62 (nmol · min^-1mg^-1) is 22.7.
